Results: patent US20240117018A1

Tests used:
Test in all cases: cell-based or functional assay
[1] = target: Env of HIV-1 pseudovirus CNE17 (HIV-1)
[2] = target: Env of HIV-1 pseudovirus Du422.1 (HIV-1)
[3] = target: Env of HIV-1 pseudovirus TRO.11 (HIV-1)
[4] = target: Env of HIV-1 pseudovirus RHPA4259.7 (HIV-1)
[5] = target: Env of HIV-1 pseudovirus 7030102001E5(Rev-) (HIV-1)
[6] = target: Env of HIV-1 pseudovirus ZM249M.PL1 (HIV-1)
[7] = target: Env of HIV-1 pseudovirus Ce1086_B2 (HIV-1)
[8] = target: Env of HIV-1 pseudovirus SC05_8C11_2344 (HIV-1)
[9] = target: Env of HIV-1 pseudovirus QH0692.42 (HIV-1)
[10] = target: Env of HIV-1 pseudovirus BF1266.431a (HIV-1)
[11] = target: Env of HIV-1 pseudovirus HIV-16845-2.22 (HIV-1)
[12] = target: Env of HIV-1 pseudovirus Q842.d12 (HIV-1)
[13] = target: Env of HIV-1 pseudovirus WEAU_d15_410_787 (HIV-1)
[14] = target: Env of HIV-1 pseudovirus 249M B10 (HIV-1)
[15] = target: Env of HIV-1 pseudovirus 6244_13_B5_4576 (HIV-1)
[16] = target: Env of HIV-1 pseudovirus Ce1172_H1 (HIV-1)
[17] = target: Env of HIV-1 pseudovirus 0260.v5.c36 (HIV-1)
[18] = target: Env of HIV-1 pseudovirus Q259.d2.17 (HIV-1)
[19] = target: Env of HIV-1 pseudovirus ZM53M.PB12 (HIV-1)

Substance: 10E8 (antibody)
- IC50 [1]: 1.11 µg/mL
- IC80 [1]: 5.25 µg/mL
- IC50 [2]: 0.351 µg/mL
- IC80 [2]: 1.88 µg/mL
- IC50 [3]: 0.034 µg/mL
- IC80 [3]: 0.25 µg/mL
- IC50 [4]: 0.728 µg/mL
- IC80 [4]: 5.28 µg/mL
- IC50 [5]: 6.71 µg/mL
- IC80 [5]: > 10 µg/mL
- IC50 [6]: 1.51 µg/mL
- IC80 [6]: 6.29 µg/mL
- IC50 [7]: 1.16 µg/mL
- IC80 [7]: 6.93 µg/mL
- IC50 [8]: 0.665 µg/mL
- IC80 [8]: 2.74 µg/mL
- IC50 [9]: 0.442 µg/mL
- IC80 [9]: 4.05 µg/mL
- IC50 [10]: 2.69 µg/mL
- IC80 [10]: > 10 µg/mL
- IC50 [11]: 0.068 µg/mL
- IC80 [11]: 0.495 µg/mL
- IC50 [12]: 4.19 µg/mL
- IC80 [12]: > 10 µg/mL
- IC50 [13]: > 10 µg/mL
- IC80 [13]: > 10 µg/mL
- IC50 [14]: 1.27 µg/mL
- IC80 [14]: 9.05 µg/mL
- IC50 [15]: 0.086 µg/mL
- IC80 [15]: 0.809 µg/mL
- IC50 [16]: 0.722 µg/mL
- IC80 [16]: 4.82 µg/mL
- IC50 [17]: > 10 µg/mL
- IC80 [17]: > 10 µg/mL
- IC50 [18]: 4.59 µg/mL
- IC80 [18]: > 10 µg/mL
- IC50 [19]: 3.98 µg/mL
- IC80 [19]: > 10 µg/mL

Substance: PG16 (antibody)
- IC50 [1]: 0.029 µg/mL
- IC80 [1]: 0.132 µg/mL
- IC50 [2]: 0.261 µg/mL
- IC80 [2]: 33.8 µg/mL
- IC50 [3]: 1.92 µg/mL
- IC80 [3]: 49.6 µg/mL
- IC50 [4]: 0.375 µg/mL
- IC80 [4]: 3.92 µg/mL
- IC50 [5]: > 50 µg/mL
- IC80 [5]: > 50 µg/mL
- IC50 [6]: 0.127 µg/mL
- IC80 [6]: 18.1 µg/mL
- IC50 [7]: > 50 µg/mL
- IC80 [7]: > 50 µg/mL
- IC50 [8]: 0.07 µg/mL
- IC80 [8]: 1.62 µg/mL
- IC50 [9]: > 50 µg/mL
- IC80 [9]: > 50 µg/mL
- IC50 [10]: 0.003 µg/mL
- IC80 [10]: 0.009 µg/mL
- IC50 [11]: 3.13 µg/mL
- IC80 [11]: > 50 µg/mL
- IC50 [12]: 0.032 µg/mL
- IC80 [12]: > 0.25 µg/mL
- IC50 [13]: 0.435 µg/mL
- IC80 [13]: > 50 µg/mL
- IC50 [14]: 0.026 µg/mL
- IC80 [14]: 1.25 µg/mL
- IC50 [15]: > 50 µg/mL
- IC80 [15]: > 50 µg/mL
- IC50 [16]: 0.007 µg/mL
- IC80 [16]: 0.037 µg/mL
- IC50 [17]: 1.54 µg/mL
- IC80 [17]: 36.1 µg/mL
- IC50 [18]: 0.065 µg/mL
- IC80 [18]: 45.9 µg/mL
- IC50 [19]: 0.007 µg/mL
- IC80 [19]: 0.051 µg/mL

Substance: PG9 (antibody)
- IC50 [1]: 0.21 µg/mL
- IC80 [1]: 0.484 µg/mL
- IC50 [2]: 0.614 µg/mL
- IC80 [2]: 10.4 µg/mL
- IC50 [3]: 43.2 µg/mL
- IC80 [3]: > 50 µg/mL
- IC50 [4]: 22.6 µg/mL
- IC80 [4]: > 50 µg/mL
- IC50 [5]: > 50 µg/mL
- IC80 [5]: > 50 µg/mL
- IC50 [6]: 0.166 µg/mL
- IC80 [6]: 1.41 µg/mL
- IC50 [7]: > 50 µg/mL
- IC80 [7]: > 50 µg/mL
- IC50 [8]: 0.892 µg/mL
- IC80 [8]: 4.28 µg/mL
- IC50 [9]: > 50 µg/mL
- IC80 [9]: > 50 µg/mL
- IC50 [10]: 0.026 µg/mL
- IC80 [10]: 0.088 µg/mL
- IC50 [11]: 4.4 µg/mL
- IC80 [11]: > 50 µg/mL
- IC50 [12]: 0.023 µg/mL
- IC80 [12]: 0.081 µg/mL
- IC50 [13]: 4.08 µg/mL
- IC80 [13]: > 50 µg/mL
- IC50 [14]: 0.095 µg/mL
- IC80 [14]: 0.29 µg/mL
- IC50 [15]: > 50 µg/mL
- IC80 [15]: > 50 µg/mL
- IC50 [16]: 0.07 µg/mL
- IC80 [16]: 0.206 µg/mL
- IC50 [17]: 1.69 µg/mL
- IC80 [17]: 9 µg/mL
- IC50 [18]: 0.029 µg/mL
- IC80 [18]: 1.38 µg/mL
- IC50 [19]: 0.069 µg/mL
- IC80 [19]: 0.221 µg/mL

Substance: 10-1074 (antibody)
- IC50 [1]: 2.69 µg/mL
- IC80 [1]: 13.3 µg/mL
- IC50 [2]: 0.045 µg/mL
- IC80 [2]: 0.166 µg/mL
- IC50 [3]: 0.008 µg/mL
- IC80 [3]: 0.057 µg/mL
- IC50 [4]: 0.021 µg/mL
- IC80 [4]: 0.118 µg/mL
- IC50 [5]: 0.006 µg/mL
- IC80 [5]: 0.021 µg/mL
- IC50 [6]: > 50 µg/mL
- IC80 [6]: > 50 µg/mL
- IC50 [7]: > 50 µg/mL
- IC80 [7]: > 50 µg/mL
- IC50 [8]: 0.052 µg/mL
- IC80 [8]: 0.123 µg/mL
- IC50 [9]: 0.191 µg/mL
- IC80 [9]: 0.929 µg/mL
- IC50 [10]: > 50 µg/mL
- IC80 [10]: > 50 µg/mL
- IC50 [11]: 1.17 µg/mL
- IC80 [11]: 5.83 µg/mL
- IC50 [12]: > 50 µg/mL
- IC80 [12]: > 50 µg/mL
- IC50 [13]: 0.104 µg/mL
- IC80 [13]: 0.375 µg/mL
- IC50 [14]: > 50 µg/mL
- IC80 [14]: > 50 µg/mL
- IC50 [15]: 0.202 µg/mL
- IC80 [15]: 0.922 µg/mL
- IC50 [16]: 0.047 µg/mL
- IC80 [16]: 0.166 µg/mL
- IC50 [17]: 0.099 µg/mL
- IC80 [17]: 0.16 µg/mL
- IC50 [18]: > 50 µg/mL
- IC80 [18]: > 50 µg/mL
- IC50 [19]: > 50 µg/mL
- IC80 [19]: > 50 µg/mL
